Values joined by “and” are separate entries in the source; they are usually repeats but may differ in a detail not shown here. Equal values may be shown once.
T1: sLe^x-capped P-selectin glycoprotein ligand-1 (PSGL-1) (UniProt Q14242 42-412, capped with the sialyl Lewis x (sLe^x) O-glycan)
T1 sequence: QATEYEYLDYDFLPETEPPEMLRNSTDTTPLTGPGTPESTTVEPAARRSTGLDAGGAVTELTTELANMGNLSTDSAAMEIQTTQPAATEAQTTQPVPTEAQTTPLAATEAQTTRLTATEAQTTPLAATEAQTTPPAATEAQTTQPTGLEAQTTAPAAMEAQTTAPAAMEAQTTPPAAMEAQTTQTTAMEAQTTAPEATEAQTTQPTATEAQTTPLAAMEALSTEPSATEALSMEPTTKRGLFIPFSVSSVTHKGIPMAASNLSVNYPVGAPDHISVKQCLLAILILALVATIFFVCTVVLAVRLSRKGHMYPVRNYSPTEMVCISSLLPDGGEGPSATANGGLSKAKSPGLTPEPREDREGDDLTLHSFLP

B1: OmpA (outer membrane protein A) on the surface of A. phagocytophilum DC organisms (other)
chain: CGTLLPDSNVGVGRHDLGSHRSVAFAKKVEKVYFDIGKYDLKGPGKKVILELVEQLRQDDSMYLVVIGHADATGTEEYSLALGEKRANAVKQFIIGCDKSLAPRVTTQSRGKAEPEVLVYSTDAQEVEKANAQNRRAVIVVEFAHIPRSGVADMHAPVASSITSENSNASAEGEDMEASEFSSAIAN

Legend:
[1] = target: sLe^x-capped P-selectin glycoprotein ligand-1 (PSGL-1) (UniProt Q14242); assay: cell-based or functional assay
[2] = target: T1, sLe^x-capped P-selectin glycoprotein …; assay: cell-based or functional assay

Row | Molecule | numbers of bound DC organisms per PSGL-1 CHO cell after incubating PSGL-1 CHO cells with KPL-1 (fold reduction) [1] | bacterial binding to PSGL-1 CHO cells after pretreating bacteria with anti-OmpA [2]
1 | KPL-1, PSGL-1 N-terminus-specific antibody | 2 and 3 | –
2 | B1 | – | ~2 fold reduction
